Measurements reported in patent publication US20080015165A1, “NOVEL POLYPEPTIDE” (KYOWA HAKKO KOGYO CO., LTD., priority 1998, published 2008).

Columns and labels:
Namalwa cells [1] = test: Indirect fluorescent antibody staining (FACS) of transformed Namalwa cells; format: cell-based, human; conditions: FIG. 1
Description: The plasmids were dissolved in 10 μl of TE buffer. Then each of the plasmids was introduced into Namalwa cells by electroporation method [Cytotechnology, 3, 133 (1990)].
After introducing […] of the plasmids prepared as described above or 4 μg of pAMo (control plasmid) per 1.0×10^6 to 1.6×10^6 cells (200 μl) by electroporation method, the cells were suspended in 8 ml of RPMI1640 media and then cultured in a CO2 incubator for 24 hours at 37° C.
After culturing, the medium was supplemented with G418 (manufactured by GIBCO BRL) to 0.5 mg/ml followed by culturing for another 10 to 14 days, thereby obtaining transformed cells.
Indirect fluorescent antibody staining using the anti-Lewis x sugar chain antibody (PM-81) was performed as follows.
About 1×10^6 transformed cells were added to a microtube (1.5 ml: manufactured by Eppendolf) and then the cells were collected by centrifugation (550×g, 7 minutes).
The cells were washed with 0.9 ml of A-PBS, suspended by adding 20 μl of the anti-Lewis x sugar chain antibody (PM-81) that had been diluted with A-PBS to about 10 μg/ml, and then allowed to react for 1 hour at 4° C. […]
After the reaction, the cells were washed once with 0.9 ml of A-PBS, and then suspended in 0.6 ml of A-PBS, followed by the analysis using a fluorescence activated cell sorter. […]

Namalwa cells [2] = test: Indirect fluorescent antibody staining of Namalwa cells expressing human Fuc-TIV or Fuc-TIX (VIM-2 and Le^x sugar chains); format: cell-based
Description: Using an anti-VIM-2 sugar chain antibody (anti-CDw65 antibody, manufactured by Serotec) and anti-Le^x sugar chain antibodies [73-30 (manufactured by […] CORPORATION) and anti-CD15 antibody (C3D-1, manufactured by Dako)], indirect fluorescent antibody staining was performed for Namalwa cells expressing human Fuc-TIV or human Fuc-TIX, and for Namalwa cells transfected with the control vector pAMo, which were constructed in Example 9. The VIM-2 sugar chain is a sugar chain having the structure consisting of Galβ1-4GlcNAcβ1-3Galβ1-4(Fucα1-3)GlcNAc on non-reduced terminal of a sugar chain.
Indirect fluorescent antibody staining was performed according to the method described in Example 1 (3). Anti-VIM-2 sugar chain antibodies, 73-30 and C3D-1 were used after dilution at 1:50, 1:100, and 1:50.

COS-1 cells = test: Indirect fluorescent antibody staining (FACS) of transformed COS-1 cells; format: cell-based, African green monkey; conditions: antibody 7LE; FIG. 3
Description: Further, COS-1 cells, into which a control plasmid (pCDM8), a mouse Fuc-TIX expression plasmid (pCDM8-mFT9), or a human Fuc-TIII expression plasmid (pCDM8-Le) had been introduced, were prepared. The cells were subjected to indirect fluorescent antibody staining using the anti-Lewis a sugar chain antibody (7LE, manufactured by […] CORPORATION) (see FIG. 3).
Each α1,3-fucosyltransferase expression plasmid (15 μg) was introduced into 1×10^7 COS-1 cells.
This introduction was performed by electroporation method using a gene pulser (manufactured by Bio-Rad) according to the Bio-Rad's instructional manual attached thereto. At this time, 1 μg of a luciferase expression vector, which was constructed by inserting β-actin promoter into a Hind III site of a vector pSVOA/L [Experimental Medicine, 7, 96, (1989)] was co-introduced as an index of gene transfer efficiency.

Namalwa KJM-1 cells = test: Indirect fluorescent antibody staining (FACS) of transformed Namalwa KJM-1 cells; format: cell-based, human; conditions: antibodies CSLEX-1, KM93; FIG. 2 (also Namalwa cells, FIG. 1)
From the text: Similarly, Namalwa KJM-1 cells, into which a control plasmid (pAMo), a mouse Fuc-TIX expression plasmid (pAMo-mFT9), a human Fuc-TIV expression plasmid (pAMo-FT4), or a human Fuc-TVII expression plasmid (pAMo-FT7) had been introduced, were obtained. The cells were subjected to indirect fluorescent antibody staining using the anti-Lewis x sugar chain antibody (KM380) and an anti-sialyl Lewis x sugar chain antibodies (CSLEX-1 or KM93) (see FIG. 2).

B1: Fuc-TIX: human Fuc-TIX, 359 amino acids (SEQ ID NO:2), α1,3-fucosyltransferase expressed from pAMo-FT9 in Namalwa cells (protein)
chain: MTSTSKGILRPFLIVCIILGCFMACLLIYIKPTNSWIFSPMESASSVLKMKNFFSTKTDYFNETTILVWVWPFGQTFDLTSCQAMFNIQGCHLTTDRSLYNKSHAVLIHHRDISWDLTNLPQQARPPFQKWIWMNLESPTHTPQKSGIEHLFNLTLTYRRDSDIQVPYGFLTVSTNPFVFEVPSKEKLVCWVVSNWNPEHARVKYYNELSKSIEIHTYGQAFGEYVNDKNLIPTISACKFYLSFENSIHKDYITEKLYNAFLAGSVPVVLGPSRENYENYIPADSFIHVEDYNSPSELAKYLKEVDKNNKLYLSYFNWRKDFTVNLPRFWESHACLACDHVKRHQEYKSVGNLEKWFWN
modifications: human
synthesis of the Lewis x sugar chain in transformed cells (Namalwa cells [1]): can synthesize
synthesis of the Lewis y sugar chain in transformed cells (Namalwa cells [1]): can synthesize
reactivity against the anti-Le^x sugar chain antibodies [73-30 and anti-CD15 antibody] (Namalwa cells [2]; Namalwa cells expressing Fuc-TIX compared with those expressing Fuc-TIV): greater
reactivity against the anti-VIM-2 sugar chain antibody (Namalwa cells [2]; compared to Namalwa cells transfected with pAMo): slight increase
synthesis of the Lewis a sugar chain in transformed cells (COS-1 cells): cannot synthesize
synthesis of the sialyl Lewis x sugar chain in transformed cells (Namalwa KJM-1 cells): cannot synthesize
